Patent US20070274991A1 (published 2007)

Target: T1, intact EGFR expressed on human mammary epithelial cells (HMECs) (human, UniProt P00533 25-1210)
T1 construct: whole, on cells; also called wild-type EGFR
Assay: radiolabeled antibody on parental HMECs
Protocol: To measure the effect on EGFR and EGFRvIII signaling of a given antibody binding to EGFR or EGFRvIII, radiolabeled antibodies were added to cultures of the HMECs described in the table above. […] When a non-neutralizing radiolabeled antibody binds to EGFR on a mammalian cell, the antibody will be internalized at a high rate if a ligand is present or if the EGFR is constitutively signaling for some other reason. When a neutralizing radiolabeled antibody binds to EGFR, signaling will stop and signaling-stimulated endocytosis will also stop.
In brief, radiolabelled antibodies were added to culture parental HMECs and to HMECs expressing EGFRvIII. At times of 0, 1, 2, 3, 5 and 10 minutes, cell samples were withdrawn, washed, and then acid-stripped to remove and measure surface-bound radiolabeled antibody. The cells were then lysed and the remaining radiolabel was measured to determine levels of internalized antibody.

- binding result: binds
B1: EMD72000 (antibody, V domains shown)
VH: QVQLVQSGAEVKKPGASVKVSCKASGYTFTSHWMHWVRQAPGQGLEWIGEFNPSNGRTNYNEKFKSKATMTVDTSTNTAYMELSSLRSEDTAVYYCASRDYDYDGRYFDYWGQGTLVTVS
VL: DIQMTQSPSSLSASVGDRVTITCSASSSVTYMYWYQQKPGKAPKLLIYDTSNLASGVPSRFSGSGSGTDYTFTISSLQPEDIATYYCQQWSSHIFTFGQGTKVEIK
notes: Used fluorescently labeled in yeast display and radiolabeled in the internalization assay; also called anti-EGFR antibody EMD72000; humanized version of the murine antibody 425
